In publication PMC8221637 (Science Advances, 2021):

Biological target: the molecule itself
Experiment: SEC

B1: recombinant His-PIPKIγ (enzyme)
chain: MELEVPDEAESAEAGAVPSEAAWAAESGAAAGLAQKKAAPTEVLSMTAQPGPGHGKKLGHRGVDASGETTYKKTTSSTLKGAIQLGIGYTVGHLSSKPERDVLMQDFYVVESIFFPSEGSNLTPAHHFQDFRFKTYAPVAFRYFRELFGIRPDDYLYSLCNEPLIELSNPGASGSLFYVTSDDEFIIKTVMHKEAEFLQKLLPGYYMNLNQNPRTLLPKFYGLYCVQSGGKNIRVVVMNNILPRVVKMHLKFDLKGSTYKRRASKKEKEKSFPTYKDLDFMQDMPEGLLLDADTFSALVKTLQRDCLVLESFKIMDYSLLLGVHNIDQHERERQAQGAQSTSDEKRPVGQKALYSTAMESIQGGAARGEAIESDDTMGGIPAVNGRGERLLLHIGIIDILQSYRFIKKLEHTWKALVHDGDTVSVHRPSFYAERFFKFMSNTVFRKNSSLKSSPSKKGRGGALLAVKPLGPTAAFSASQIPSEREEAQYDLRGARSYPTLEDEGRPDLLPCTPPSFEEATTASIATTLSSTSLSIPERSPSETSEQPRYRRRTQSSGQDGRPQEEPPAEEDLQQITVQVEPACSVEIVVPKEEDAGVEASPAGASAAVEVETASQASDEEGAPASQASDEEDAPATDIYFFTDGRYWIYSPRHRRLRAVTLSASGTPTDERSWVYSPLHYSAQAPPASDGESDT
stoichiometry N: 2
